# Laboratory results from paper PMC11514443 (Structure (London, England : 1993), 2019).
# pKd: −log10 of the molar value.
# Target: MORC3-CW E431A mutant (human) (UniProt Q14149)
# Assay: other fluorescence titration
# Chain of MORC3-CW E431A mutant (human) (Q14149 401-455 E431A): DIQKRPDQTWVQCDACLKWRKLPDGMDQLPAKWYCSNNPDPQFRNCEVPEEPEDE
substance,measurement,value
NS1 peptide trimethylated at K229 (residues 222-230 of NS1),pKd,4.24
